KM of AMC release from diUb-AMC (Michaelis-Menten, 15 nM OTUD3), KM of AMC release from diUb-AMC (Michaelis-Menten, 15 nM OTUD2, substrate up to 20 μM) and t1/2 of covalent probe labelling data for 5 substances are collected here from article PMC4850247.

In experiment [1] the target is OTUD3 (aa 52-209) (human) (UniProt Q5T2D3).
Experiment [2] deals with Full-length human OTUD2 (human) (UniProt Q5VVQ6).
For experiment [3] the target is unchanged. Description: covalent labelling with an active site-directed probe (SDS-PAGE, fluorescence scan); 0.1 μM OTUD2 constructs with 1 μM TAMRA-labeled K11-linked diUb-PA, time course up to 60 min, bands quantified.
Experiment [4] addresses OTUD2 OTU (aa 147-314) (human) (UniProt Q5VVQ6). The experiment is described as above.
The target in experiment [5] is Full-length human OTUD2 (human) (UniProt Q5VVQ6). Description: covalent labelling with an active site-directed probe (SDS-PAGE, fluorescence scan); 0.2 μM OTUD2 with 2 μM TAMRA-labeled mUb-PA or diUb-PA probes, time course, 30°C, 20 mM Tris-HCl pH 7.5, 150 mM NaCl; bands quantified and fitted by pseudo-first-order one-phase association, plateau forced to that of K11.

Sequence of UniProt Q5T2D3 (Q5T2D3 52-209): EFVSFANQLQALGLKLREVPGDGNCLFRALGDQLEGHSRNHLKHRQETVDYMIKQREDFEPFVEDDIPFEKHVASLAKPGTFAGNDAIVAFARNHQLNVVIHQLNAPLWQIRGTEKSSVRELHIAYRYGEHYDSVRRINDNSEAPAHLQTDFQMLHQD

Regarding “K11 triazole-linked diUb-AMC substrate (from UniProt P0CG48 1-76)”, the KM of AMC release from diUb-AMC (Michaelis-Menten, 15 nM OTUD3) in experiment [1] came out at 3.7 µM. In experiment [2], the KM of AMC release from diUb-AMC (Michaelis-Menten, 15 nM OTUD2, substrate up to 20 μM) is 20 µM.
“K27 triazole-linked diUb-AMC substrate (from UniProt P0CG48 1-76)”: in experiment [1], the KM of AMC release from diUb-AMC (Michaelis-Menten, 15 nM OTUD3) turned out to be 4.7 µM.
Consider “K33 triazole-linked diUb-AMC substrate (from UniProt P0CG48 1-76)”, for which the KM of AMC release from diUb-AMC (Michaelis-Menten, 15 nM OTUD2, substrate up to 20 μM) in experiment [2] is 100 µM.
For the substance “TAMRA-labeled K11 triazole-linked diUb-PA probe (from UniProt P0CG48 1-75; P0CG48 1-75)”, the t1/2 of covalent probe labelling was determined as 5.3 min in experiment [3], 6.8 min in experiment [4] and 3.5 min in experiment [5].
The substance “TAMRA-labeled K33 triazole-linked diUb-PA probe (from UniProt P0CG48 1-75; P0CG48 1-75)” came in with a t1/2 of covalent probe labelling in experiment [5] of 8.5 min.
